Test results published in the nanobody polyreactivity screen of Harvey et al. (2022).

Experiment: yeast display, Sf9 membrane polyspecificity reagent, FACS + sequencing; frameworks hold sequencing errors
Summary of the method: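 Using colony PCR, genes from sorted yeast display clones were amplified, then sequenced on MiSeq at 2 × 250 and filtered by CDR length. The clones had been stained with 10% biotinylated, detergent-solubilized Sf9 membrane reagent for 1 hour at 4 °C and sorted by FACS into low and high (top ~1%) gates on anti-HA and streptavidin fluorescence. Polyreactivity labels come from the gate of origin.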

QVQLVESGGGLVQAGGSLRLSCAASGNTFAYYAMGWYRQAPGKERELVAAISGSGGRTYYADSVKGRFTISRDNAKNTVYFQMNILKPEDTAVYYCNARPAGGLGYGYWGQGTQVTVSS
polyreactivity (PSR sort gate): high polyreactivity

QVQLVESGGGLVQAGGSLRLSCAASGSIIWLYAMGWYRQAPGKERELVAAISSGGSTYYADSVKGRFTISRDNAKNTVYLQMNSLKPEDTAVYYCAADYWSQSDWWDLTEYEYWGQGTQVTVSS
polyreactivity (PSR sort gate): high polyreactivity

QVQLVESGGGLVQAGGSLRLSCAASGRTFYYNTKGWYRQAPGKERELVASISGSGGRTYFADSVKGRFTISRDTAKNTVYLQMNSLKPEDTAVYYCASSRARRSRYILDYWGQGTQVTVSS
polyreactivity (PSR sort gate): high polyreactivity

QVQLVESGGGLFQAGGSLRLSCAASGFTFPDYAMGSYRQAPGKERELVAAISSDGSTYDADSVKGRFTISRDIAKTTVYLQMNSLKPEDTAVYYCAAYVVWLYGYAYWGQGTQVTVSS
polyreactivity (PSR sort gate): low polyreactivity

QVQIVESGGGLVQAGASLRLSCAASGSISKSYAMGWYRQAPGKERELVAAISWRGGSTYADSVKGRFTISRDNAENTVYSLMNSLKPEDTAVYYCAATNYGSFWGGQSERYDYWGQGTQVTVSS
polyreactivity (PSR sort gate): low polyreactivity

QVQLVESGGGLVQAGGSLRLSCAASGSTFSPYAMGWYRQAPGKERELVAAINYSSGSTYYADSVKGRFTISRDNAKNTVYFQMNSLKTEDTAVYYCAKGWYAGYPYDYWGQGTQVTVSS
polyreactivity (PSR sort gate): low polyreactivity

QVQLVESGGGLVQAGGSLRLSCAASGNTLVYYAMGWYRQAPGKERELVADISSSGGITYYADSVKGRFTISRDNAKNTVYLLMNSLKPVDTAVYYCAVDYPLYYWYLYNYWGQGTQVTVSS
polyreactivity (PSR sort gate): low polyreactivity

QVQRVESGGGLVQAGGSLSLSCAASGRTCGVYAMGWYRQAPGKERELGASSSRSAGSTYYADSVKGRFTISRDNAKNTVYFQMNSLKTEDTAVYYCAAVYKRGMDYWGQGTQVTVSS
polyreactivity (PSR sort gate): high polyreactivity

QVQLVESGGGLVQAGGSLRLSCAASGLIFVQNAMGWYRPAPGKERELVAAISSRGTNTYYADSVKGRFTISRDTAKNTVYLQMNSLKPEDTAVYYCAKPLKTPRPNYDYWGQGTQVTVSS
polyreactivity (PSR sort gate): low polyreactivity

QVQLVESVGGLVQAGGSLRLSCAASGRIFTSYAMGWYRQAPGKERELVAAIRFNGDSTYYADSVKGSFTISRDNAKNTVYLQMNSLKPEDTAVYYCAASRYRGSFRYTEYYWGQGTQVTVSS
polyreactivity (PSR sort gate): high polyreactivity

HVQHVESGGGLVHAGGSLRLRCAASGSIFVYYAMGWYRQAPGKERELVAAISGGGGRKYYADSVKGRFTISRDNANNTVYLQMNSLKPDDTAVYYCAARRATYPGGFYSWGQGSQVTVSS
polyreactivity (PSR sort gate): high polyreactivity

QVQLVESGGGLVQAGGSLRLSCAASGGTFSYYAMGWYRQAPGKERELVAAISGNGDTTYYADSVKGRFTSSRDNAKNTVYLQMNSLKPEATAVYYCNVFVSAGEEDEYWGQGTQVTVSS
polyreactivity (PSR sort gate): low polyreactivity

QVHLVESGGCLVQAGGSLRLSCAASGRIFGLYAMGWYRPAPGKESELVAAISEGGGSTNYADSVKWRFTISRDNAKNTVYLQMNILKPEDTAVYYCAATYRTGVRRYYSWGQGTQVTVSS
polyreactivity (PSR sort gate): low polyreactivity

QVQHVESGGGLLQAGGSLRLTCTASRSIFPYYAMGWYRQATGKERELVAAISSSGARTYYADSVKGRFTISRDNAKNTVYLQMNSLKPEDTGFYYCNSDTIRYRTYGRYAWYNYWGQGTQVTVSS
polyreactivity (PSR sort gate): high polyreactivity

QVQLVESGGGLVQAGGSLRLSCAASGSIFYRNAMGWYRQAPGKERELVAAISGRGGSTNYADSVKGRFTISRDNAKNTVYLQMNSLKPEDTAVYYCNRYGVSNILVRGGYWGQGTQVTVSS
polyreactivity (PSR sort gate): high polyreactivity

QVQLVESRGGVVQAGGSLRLRCAASGRTFYRNVMGWSRQAPGKERELVAAITGDGGSTYYADSVKGRFTISRDNAKNTVYVQMNSQKAEVTAVYYCAASVYPQKRFFYWGHGTQVTVSS
polyreactivity (PSR sort gate): high polyreactivity

QVQLVESGGGLVQEGGSLRLSCAASGRTFAVYAMGWYRQAPGKERELVAAITYGGGRTYYADSVKGRFTISRDNAKNTVYLQMNSLKPEDTAVYYCAADYYGTDYDYWGQGTQVTVSS
polyreactivity (PSR sort gate): low polyreactivity

QDQLEESGVGLLQAGGSLRLSCAASGNTFFVNDMGWYRHAPRKERELLAVISINGDSTFYADSVKGRFTISRDNAKNTVYLQMNSLKPEDTAVYYCAADFRRVFCKYSYYLYFEFDYWGQGTQVTVSS
polyreactivity (PSR sort gate): low polyreactivity

QVQLVESGGGLVQAGGSLRLSCAASGSICRLYAMGWYRPARGKEREFVAGITRRTGSTYYADSVKWRFTISRDNAKNTVYLQMTSLKPEETAVYYCAKRDARATPFGYWGLGTQVTVSS
polyreactivity (PSR sort gate): high polyreactivity

QVQLVESGGGLVQAGGSLRLSCAASGSTFGYYGMGWYRQAPGKERELVAAISTGGRTNYADSVKGRFTISRDNAKNTVYLQMNSLKPEDTAVYYCAADFLSPAYRPSWYRFDYWGQGTQVTVSS
polyreactivity (PSR sort gate): low polyreactivity

QVQLVESGGGLVQAGGSLRLSCAASGRTFFEYAMGWYRQAPGKERELVAIITNGATTNYADSVKGRFTISRDNAKNTVYLQMNSLKPEDTAVYYCAVAKWQPRRRKYYYWGQGTQVTVSS
polyreactivity (PSR sort gate): high polyreactivity

QVQLVESGGGLVQAGGSLRLSCAASGFTFYYYAMGWYRQAPGKERELVATISSSGGSTHYADSVKGRFTISRDNAKNTVYLQMNSLKPEDTAVYYCAADSYWDQSHIRDYWGQGTQVTVSS
polyreactivity (PSR sort gate): low polyreactivity

QVQLVESGGGLVQAGGSLRLSSAASGSTFSDYAMGWYRQAPGKERELVAGITGGGGTYYADSVKGRFTISRDNAKNTVYLQMNSLKPEDTAVYYCAAGRRHGFGYWGQGTQVTVSS
polyreactivity (PSR sort gate): low polyreactivity

QVQLVESGGGLVQAGGSLRLSCAASGSTFQSNAMGWYRQAPGKERELVAAISSSAGTTFYADSVKGRFTISRDNAKNTVYLQMNSLKPEDTAVYYCAKKDFYFAPSPGYYRSRDYWGQGTQVTVSS
polyreactivity (PSR sort gate): low polyreactivity

QVQLVESGGGLVQAGGSLRLSCAASGIIFGTNAMGWSRQAPGKERELVAAITWSGGTYYADSVKGRFTISRDNAKITVYLQMNSQKPEDTAVYYCNAEWRVYPDLYDYWGQGTQVTVSS
polyreactivity (PSR sort gate): low polyreactivity

QVQLVESGGGLVQAGGSLRLSCAASGRTIRGNAMGWYRQAPGKERELVAAITRSGASTTYADSVKGRFTISRDNAKNTVYLQMNSLKPEDTAVYYCAARSGAVKYSSYYYWGQGTQVTVSS
polyreactivity (PSR sort gate): high polyreactivity

QVQLVESGGGLVQAGGSLRLSCAASGIIFRRYAMGLYRQAPGKERELVAAISSRGGSTYYADSVKGRFTISRDNAKNTVYLQMNCLKPEDTAVYFCAKGFSGTGGSGDFGYWGQGTQETVSS
polyreactivity (PSR sort gate): high polyreactivity

QVQLVESGGGLVQAGGSLRLSCAASGSTIHYYAMGWYRQAPGKERELVAAISSSGVSTYYADSVKGRFTISRDNAKNTVYLQMNSLKPEDTAVYYCNRASVFHYRWYYYGGQGTQVTVSS
polyreactivity (PSR sort gate): high polyreactivity

QVQLVESGGGLVQAGGSLRLSFAASGSIFVQYAMRWYRPAPGKERELVAAIDFSDTSTYYADSVKGRFTISRDNAKNTVYLHMNSLKPEDTAVYYCAAEEDSPCRSAIAEEEYWGQGTLVTVSS
polyreactivity (PSR sort gate): low polyreactivity

QVQLVESGGGLVQAGGSLRLSCAASGFTFSYNAMGWYRPAPGKERELVAVITKSGGSTYYADSVKGRFTISRDNAKNTVYLQMNSLKPEDTAVYYCNRQIKKLLTTHYYWGQGTQVTVSS
polyreactivity (PSR sort gate): high polyreactivity

QVQLVESGGGLVQAGGSLRLSCAASGFIFFNYAMGWYRQAPGKERELVAVIDRSGGTTYYADSVKGRFTISRDNAKNTVYLQMNSLKPEDTAVYYCNADDFTYPSGWGFIYDYWGQGTQVTVSS
polyreactivity (PSR sort gate): low polyreactivity
